This note sets out measurements from patent publication CN115703837A (DONGGUAN PENGZHI BIOTECHNOLOGY CO LTD, dated 2023).

As a reminder, the Kd is the constant that tells how readily two partners part at equilibrium. A high value points to lower affinity. By koff is commonly meant a measure of how fast the partners let go of each other. Read a high koff as a short-lived complex. A word on the kon: it is the second-order rate constant of association. A higher kon goes with faster complex formation.

The target in experiment [1] is T1, 生长刺激表达基因2蛋白(ST2)抗原 (UniProt Q01638-2 19-328, limits assumed).
T1 construct: also called sST2; IL1RL1
T1 sequence (looked up): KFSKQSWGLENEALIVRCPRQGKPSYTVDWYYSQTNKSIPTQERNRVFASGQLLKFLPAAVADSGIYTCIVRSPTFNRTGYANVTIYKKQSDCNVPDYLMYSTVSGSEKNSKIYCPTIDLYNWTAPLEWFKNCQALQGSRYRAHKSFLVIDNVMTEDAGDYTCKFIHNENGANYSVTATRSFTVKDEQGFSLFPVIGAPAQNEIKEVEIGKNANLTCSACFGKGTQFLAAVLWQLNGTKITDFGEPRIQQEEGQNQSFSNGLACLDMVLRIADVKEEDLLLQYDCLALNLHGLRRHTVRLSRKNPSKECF
Description: BLI, AMC sensor, antibody immobilised at 10 ug/ml, ST2 antigen in serial dilution. A general note: In BLI a coated tip is dipped into the sample, and binding shifts an interference pattern.

For experiment [2], the target named is T1, 生长刺激表达基因2蛋白(ST2)抗原. Description: sandwich ELISA, antibody at 0.000 ng/ml (blank, no antibody), ST2 antigen, HRP anti-ST2 mAb detection. Background: In an ELISA, binding on a coated surface is turned into a signal by an enzyme label.
For experiment [3], the target named is T1, 生长刺激表达基因2蛋白(ST2)抗原. Kind of experiment: sandwich ELISA, antibody at 1.953 ng/ml captured on goat anti-mouse IgG, ST2 antigen, HRP anti-ST2 mAb detection.
The target of experiment [4] is T1, 生长刺激表达基因2蛋白(ST2)抗原. Description: sandwich ELISA, antibody at 3.906 ng/ml captured on goat anti-mouse IgG, ST2 antigen, HRP anti-ST2 mAb detection.
The target of experiment [5] is T1, 生长刺激表达基因2蛋白(ST2)抗原. Kind of experiment: sandwich ELISA, antibody at 7.813 ng/ml captured on goat anti-mouse IgG, ST2 antigen, HRP anti-ST2 mAb detection.
In experiment [6] the target is T1, 生长刺激表达基因2蛋白(ST2)抗原. Description: sandwich ELISA, antibody at 15.625 ng/ml captured on goat anti-mouse IgG, ST2 antigen, HRP anti-ST2 mAb detection.
The target in experiment [7] is T1, 生长刺激表达基因2蛋白(ST2)抗原. Kind of experiment: sandwich ELISA, antibody at 31.250 ng/ml captured on goat anti-mouse IgG, ST2 antigen, HRP anti-ST2 mAb detection.

As to 对照 (antibody), the Kd in the experiment with 生长刺激表达基因2蛋白(ST2)抗原 [1] was determined as 7.3 nM. The koff with 生长刺激表达基因2蛋白(ST2)抗原 [1] was 0.00723 s⁻¹. This molecule had a kon in the experiment with 生长刺激表达基因2蛋白(ST2)抗原 [1] of 990000 M⁻¹ s⁻¹. Moreover, the OD450 (ref 630) with 生长刺激表达基因2蛋白(ST2)抗原 [2] was found to be 0.046 OD; with 生长刺激表达基因2蛋白(ST2)抗原 [3], 0.163 OD; with 生长刺激表达基因2蛋白(ST2)抗原 [4], 0.26 OD; with 生长刺激表达基因2蛋白(ST2)抗原 [5], 0.37 OD; with 生长刺激表达基因2蛋白(ST2)抗原 [6], 0.665 OD; with 生长刺激表达基因2蛋白(ST2)抗原 [7], 1.51 OD.

B1: Anti-ST2 11F9 (antibody, V domains shown)
VH: QIQLVQSGPELKKPGETVKLSCKASGYTFTDYSIHWVKQAPGKGLKWMGWIHTETGEPTYADDFKGRFAFSLETSASTAYFQINNLRNEDTATYFCARDDGLDYWGQGTSVTVSS
VL: DVQMIQSPSSLSASLGDIVTMTCQASQDTNINLNWFQQKPGKAPELLIYDTNNLEDGVPSRFSGSRYGTDFTLTISSLEDEDMATYFCLQHSYLPLTFGAGTKLELK
In the experiment with 生长刺激表达基因2蛋白(ST2)抗原 [1], B1 gave a Kd of 0.761 nM, a koff of 0.000745 s⁻¹ and a kon of 979000 M⁻¹ s⁻¹.
